Our source for the protein stability index values is the supplement of paper PMC10724198.

± gives the standard deviation of the averaged measurements.
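Note: PSI is a weighted mean of sequencing reads over stability bins, variants kept only with over 10 reads, mCherry proximal and sfGFP distal, peptide attached via GGGS linker.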

In this series the test system is Saccharomyces cerevisiae. The experiment in a line: protein stability index of tFT-peptide fusion (C-terminal peptide) (PSI (0-1 scale)); higher = more stable (slower turnover). The following applies: genetic background: wild type; temperature: 30 C. The protocol: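 Multiplexed protein stability (MPS) profiling in S. cerevisiae. Random 12-aa peptides (tFT-X12 library) are fused to the C-terminus of a sfGFP-mCherry tandem fluorescent timer, after mCherry and a GGGS linker. Cells are FACS-sorted into 8 mCherry/sfGFP bins and deep-sequenced. The protein stability index (PSI) is the read-weighted bin average, scaled from 0 (unstable) to 1 (stable). Only peptides with >10 reads are reported; cells were grown at 30 °C in SC-His with glucose.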
Take FWSCCCTLLFCV: the protein stability index came to 0.5974 ± 0.002.
Next, FYLMSDTNLPAL: 0.664 ± 0.021; FYSRSVTLEVLH: 0.605 ± 0.023.
FYWFPYYFSHLH registered a protein stability index of 0.602 ± 0.048.
With GAAGGRGRGTAW, the protein stability index amounted to 0.619 ± 0.15.
The figure for GACSIVFYKVKR is 0.653 ± 0.048.
The figure for GAGGSAGARSAE is 0.702 ± 0.03; for GAGRGGGRGRRW it is 0.661 ± 0.031; for GAGRVRAPGRWP it is 0.6965 ± 0.0035.
As to GAGSGTRQPKPR, the protein stability index is 0.617 ± 0.0076.
The figure for GAGSRRRNWGGW is 0.711 ± 0.0081; for GAILQVEAITHN it is 0.657 ± 0.068.
GALVEGVFGHVR registered a protein stability index of 0.658 ± 0.0066.
The figure for GAPPPAFPISSP is 0.648 ± 0.05; for GAQVGVRFLFSI it is 0.55 ± 0.011; for GARHTALCCPMG it is 0.623 ± 0.041.
Next, GARRGVSERSPA: 0.647 ± 0.041; GASGGNRTGRRS: 0.681 ± 0.022.
The figure for GASGWGGGGRGR is 0.767 ± 0.14; for GATPRTAGRRPG it is 0.688 ± 0.038; for GAVCRRVWVGSW it is 0.674 ± 0.0089.
For the sequence GAVRAVAGGGAR, the protein stability index came to 0.711 ± 0.067.
The figure for GAVVGGRCFCRR is 0.715 ± 0.012; for GCARLPALCCMF it is 0.694 ± 0.039; for GCCCVMNQLRRR it is 0.777 ± 0.088.
The figure for GCELVISCAHPV is 0.695 ± 0.063; for GCFRGLYVVRGG it is 0.647 ± 0.039; for GCFVGCDHWGVV it is 0.67 ± 0.028.
Next, GCGEGNVRPCEL: 0.6347 ± 0.0011; GCGFRGVYSCWV: 0.678 ± 0.078; GCGGGGGAWKGV: 0.751 ± 0.056.
For GCGMCDPRCEHY, the protein stability index amounted to 0.743 ± 0.083.
Next, GCGSWAWWCGRG: 0.894 ± 0.08; GCGVGVGASVGR: 0.636 ± 0.025; GCLHVVGGVCLG: 0.69 ± 0.048.
The figure for GCLPSGTPAWFG is 0.751 ± 0.052.
Next, GCMRCTYKGKVK: 0.713 ± 0.059.
In turn, GCSVSRIRSAYV had a protein stability index of 0.672 ± 0.0089.
Consider GCVGGWLGEGIG, for which the protein stability index is 0.627 ± 0.035.
As to GCVSAVSKCFFL, the protein stability index was 0.751 ± 0.1.
The figure for GDARLAIWSLVT is 0.512 ± 0.0098.
Next, GDIILSFFNFSK: 0.666 ± 0.024; GDLVRNARSLII: 0.72 ± 0.014; GDRYFGTPAPSH: 0.757 ± 0.021.
GDYETPSTRSPM showed a protein stability index of 0.67 ± 0.023.
The figure for GEAVGRWSECRS is 0.664 ± 0.0091; for GEDADLVPILLG it is 0.707 ± 0.044.
The sequence GEFSINDGSGWT returned a protein stability index of 0.7106 ± 0.0045.
Next, GEGAWNRKKPGD: 0.632 ± 0.067.
The figure for GEGRRQIKEEHV is 0.6842 ± 0.0042; for GEGRRWGSFWVG it is 0.6701 ± 0.0039.
GEGVPVWNQCVE: the protein stability index turned out to be 0.658 ± 0.0091.
Next, GEGVVRGDGVRG: 0.656 ± 0.041.
Next, GEIMGEVARREK: 0.66 ± 0.048.
The figure for GELGIECREVVG is 0.704 ± 0.087; for GELVVRVGEWGC it is 0.7051 ± 0.0027.
In the case of GEQAGLSLTAGP, the protein stability index came out at 0.678 ± 0.03.
Next, GERRREKRKNSG: 0.726 ± 0.046; GESTNVYTTHWI: 0.736 ± 0.011; GESWCGLVWPGG: 0.675 ± 0.013.
The figure for GEVILERKRRKI is 0.629 ± 0.057.
The figure for GEVKRSLGQVRG is 0.695 ± 0.007.
Consider GEWRHVFSVTRC, for which the protein stability index was found to be 0.7475 ± 0.0025.
The figure for GEWVNLGFGFLF is 0.781 ± 0.11.
The sequence GEYYKRKMNGSK returned a protein stability index of 0.718 ± 0.11.
The figure for GFARICVLLPSS is 0.727 ± 0.039; for GFEIFYLVLGIP it is 0.52979 ± 0.00023.
Next, GFETGLGKGAGW: 0.714 ± 0.019; GFGCVGSIFVIY: 0.66 ± 0.018; GFGFMGLRFGVD: 0.762 ± 0.13.
Next, GFGPPGPCSYVR: 0.691 ± 0.042; GFGSGVVAGSSL: 0.682 ± 0.044; GFISFASRISTS: 0.722 ± 0.032.
GFLEAIMRFCGL returned a protein stability index of 0.719 ± 0.0081.
The figure for GFLVNNCLGFLW is 0.782 ± 0.051.
Next, GFLVPVALCPVV: 0.557 ± 0.03; GFPGLFCGPVRF: 0.742 ± 0.054; GFPGSYSKVLCL: 0.6619 ± 0.0032.
The sequence GFRPVVAGIGHS had a protein stability index of 0.6632 ± 0.0061.
The figure for GFSAGVSHSGAG is 0.661 ± 0.017.
On to GFSRELTLARLI, for which the protein stability index is 0.613 ± 0.017.
Next, GFTGGGRRWLGG: 0.713 ± 0.056; GFTGWGRRWLGG: 0.713 ± 0.059; GFVGVGEEEIFG: 0.7217 ± 0.006.
As to GFVRYPYFAFGR, the protein stability index stood at 0.687 ± 0.093.
In turn, GGAGGNLAPGRG displayed a protein stability index of 0.638 ± 0.026.
The figure for GGALTADTTIAP is 0.662 ± 0.087.
The figure for GGAMLMLAVEGV is 0.609 ± 0.044; for GGAWRGWCVGVR it is 0.644 ± 0.1; for GGAYRCFSIQRS it is 0.687 ± 0.0078.
In turn, GGCAGGGGVVVR showed a protein stability index of 0.6851 ± 0.0046.
Turning to GGCAGRGGVVVR, the protein stability index was found to be 0.6904 ± 0.0029.
Consider GGCEWWSGGRGG, for which the protein stability index was 0.733 ± 0.026.
Take GGCGGVCGACVV: the protein stability index was 0.695 ± 0.011.
The figure for GGCGLGGVLEVG is 0.676 ± 0.017.
The figure for GGCGNVGVGVSV is 0.694 ± 0.012; for GGCGYGELWAWA it is 0.7908 ± 0.0038.
The figure for GGCPPFGVSSVG is 0.708 ± 0.013.
As for GGCRGDGMMGVG, the protein stability index worked out at 0.552 ± 0.072.
The figure for GGCSCLGVGCLS is 0.675 ± 0.045.
Consider GGCVWWSWGRGG, for which the protein stability index was 0.652 ± 0.016.
Next, GGDARGRGGMPD: 0.712 ± 0.12; GGDIRGGVRHIG: 0.725 ± 0.026.
As for GGEGRGRVWEIS, the protein stability index was 0.686 ± 0.068.
GGELRPKGVRGV: the protein stability index amounted to 0.656 ± 0.046.
Next, GGENGLGGLGVG: 0.626 ± 0.14.
The figure for GGFESRVVGGVG is 0.526 ± 0.034; for GGFRDIAYCLVP it is 0.613 ± 0.0072; for GGGARWAGLGEG it is 0.687 ± 0.06.
GGGCERGVGLLG gave a protein stability index of 0.626 ± 0.066.
Next, GGGCGLFVFLSL: 0.63 ± 0.058; GGGCQVSPPSLL: 0.7076 ± 0.0024.
Next, GGGCVGGGSSCA: 0.701 ± 0.12; GGGGGCGRAGGG: 0.714 ± 0.053.
The figure for GGGGGCLSGRLG is 0.654 ± 0.028; for GGGGGCVGRLWG it is 0.742 ± 0.026.
